Laboratory results published in article PMC6004067.

Target: GST-TBP, GST-tagged full-length human TBP (human) (UniProt P20226)
Experiment: pull-down; GST pull-down: GST-TBP, GST-TFIIB or TBP fragments on glutathione beads; analytes in buffer B2 (150 mM NaCl), 1 h at 4°C, four washes, Western blot

Sequence of GST-TBP, GST-tagged full-length human TBP (human) (P20226 whole entry, the tested form may be a part): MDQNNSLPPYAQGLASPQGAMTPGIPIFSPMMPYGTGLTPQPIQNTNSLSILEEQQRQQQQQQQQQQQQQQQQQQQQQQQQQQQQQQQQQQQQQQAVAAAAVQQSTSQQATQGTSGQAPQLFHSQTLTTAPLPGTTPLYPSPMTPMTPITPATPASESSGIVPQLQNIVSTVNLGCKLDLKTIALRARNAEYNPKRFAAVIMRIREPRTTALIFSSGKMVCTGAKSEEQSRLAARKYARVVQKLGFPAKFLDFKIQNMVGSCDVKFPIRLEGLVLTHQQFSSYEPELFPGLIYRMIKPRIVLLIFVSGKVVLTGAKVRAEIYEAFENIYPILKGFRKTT

- increase in SNAPc recruitment to GST-TBP on addition of TFIIA: 60%
Substance: SNAP complex (SNAPc) (from UniProt Q5SXM2 1-1469; Q92966 1-411; Q13487 1-334; Q16533 1-368; O75971 1-98)
